The target in data set [1] is T1, cystathionine γ-lyase (PaCGL) (Pseudomonas aeruginosa, UniProt Q9I6A0).
T1 construct: gene PA0400; 394-residue PaCGL (PAO1_PA0400), 6x-His tagged; homotetramer
The experiment in a line: intrinsic fluorescence titration of apo-PaCGL; […] Å crystal structure. It counts as binding.

The target in data set [2] is PaCGL F114A variant, N-terminal 6x-His tag (Pseudomonas aeruginosa). The experiment in a line: SEC; gel filtration on Sephacryl S-200 16/60 HR in 20 mM sodium phosphate pH 8.0, 150 mM NaCl, 0.1 mM DTT; calibration curve; self-association (tetramer). A general note: Size exclusion chromatography separates by hydrodynamic size, large species first.
For data set [3], the target named is PaCGL F114N variant ("humanized"), N-terminal 6x-His tag (Pseudomonas aeruginosa). Described as above.
The test system of data set [4] is N[C@@H](CCSC[C@H](N)C(=O)O)C(=O)O. The data set is described as follows: DTNB assay steady-state kinetics (Km). The settings on record: PLP PLP-containing active site. Format: biochemical, Pseudomonas aeruginosa.
The test system of the next data set is N[C@@H](CS)C(=O)O. The data set is described as follows: purified protein. Format: biochemical, Pseudomonas aeruginosa. The settings on record: PLP PLP-containing active site.
For data set [5], the target named is cystathionine γ-lyase from Pseudomonas aeruginosa (PaCGL), wild type, N-terminal 6x-His tag (Pseudomonas aeruginosa). The data set is described as follows: SEC; gel filtration on Sephacryl S-200 16/60 HR in 20 mM sodium phosphate pH 8.0, 150 mM NaCl, 0.1 mM DTT; calibration curve; self-association (tetramer).
Substrate in data set [6]: N[C@@H](CCSC[C@H](N)C(=O)O)C(=O)O
The data set is described as follows: DTNB assay steady-state kinetics (Km); UV-Vis and CD spectra; LC-MS/MS. Particulars: PLP PLP-containing active site (chamber-1). Format: biochemical, Pseudomonas aeruginosa.

Substrate in the data set “purified protein”: N[C@@H](CS)C(=O)O
The data set is described as follows: purified protein. Format: biochemical, Pseudomonas aeruginosa. The settings on record: PLP amino acid site […] of the active site (second L-Cys at site […]).

Substrate in data set [7]: N[C@@H](CCS)C(=O)O
The experiment in a line: lead acetate H2S assay kinetics (Km); LC-MS/MS. It counts as biochemical, Pseudomonas aeruginosa. The settings on record: PLP PLP-containing active site.

The term Kd denotes a measure of binding affinity in units of concentration. A low value points to higher affinity. On to `Cc1ncc(COP(=O)(O)O)c(C=O)c1O` [PLP], for which the dissociation constant Kd in [1] stood at 150 ± 10 nM.
One may read the stoichiometry N as a count of units in the complex or per binding partner. In the case of “PaCGL F114A variant, N-terminal 6x-His tag (enzyme)”, in [2], the stoichiometry N was found to be 4.
Consider “PaCGL F114N variant ("humanized"), N-terminal 6x-His tag (enzyme)”, for which the stoichiometry N in [3] was found to be 4.
For orientation: Km means the concentration of substrate that gives half-maximal velocity. Broadly, the kcat is the maximal rate divided by the concentration of active sites. Usually kcat/Km stands for the turnover number divided by the Michaelis constant. Take “cystathionine γ-lyase (PaCGL) (Pseudomonas aeruginosa PAO1; F114A)”: in [4], the Km is 600 ± 100 µM, the turnover number (kcat) worked out at 3.2 ± 0.2 s⁻¹ and the kcat/Km came out at 5300 ± 1200 M⁻¹ s⁻¹. Also, in the data set with N[C@@H](CS)C(=O)O, the Michaelis constant (Km) was 490 ± 10 µM, the turnover number (kcat) is 0.13 ± 0.01 s⁻¹ and the kcat/Km worked out at 270 ± 30 M⁻¹ s⁻¹.
In the case of “cystathionine γ-lyase (PaCGL) (Pseudomonas aeruginosa PAO1; F114N)”, in data set [4], the Km came to 500 ± 100 µM, the kcat turned out to be 3.2 ± 0.1 s⁻¹ and the specificity constant (kcat/Km) stood at 6400 ± 1500 M⁻¹ s⁻¹. Moreover, in the data set with N[C@@H](CS)C(=O)O, the Km was 1600 ± 300 µM, the kcat turned out to be 0.38 ± 0.06 s⁻¹ and the kcat/Km turned out to be 240 ± 80 M⁻¹ s⁻¹.
Regarding “cystathionine γ-lyase from Pseudomonas aeruginosa (PaCGL), wild type, N-terminal 6x-His tag (enzyme)”, the stoichiometry N in data set [5] stood at 4.

B1: cystathionine γ-lyase (PaCGL) (Pseudomonas aeruginosa PAO1) (protein)
chain: MSQHDQHPDAPAQAFATRVIHAGQAPDPSTGAIMPPIYANSTYIQESPGVHKGLDYGRSHNPTRWALERCVADLEGGTQAFAFASGLAAISSVLELLDAGSHIVSGNDLYGGTFRLFERVRRRSAGHRFSFVDPTDLQAFEAALTPETRMVWVETPSNPLLRLTDLRAIAQLCRARGIISVADNTFASPYIQRPLELGFDVVVHSTTKYLNGHSDVIGGIAIVGDNPDLRERLGFLQNSVGAISGPFDAFLTLRGVKTLALRMERHCSNALALAQWLERQPQVARVYYPGLASHPQHELAKRQMRGFGGMISLDLRCDLAGARRFLENVRIFSLAESLGGVESLIEHPAIMTHASIPAETRADLGIGDSLIRLSVGVEALEDLQADLAQALAKI
notes: PaCGL with N-terminal 6x-His tag
For B1, in data set [6], the Km was found to be 300 ± 40 µM, the kcat worked out at 5.2 ± 0.2 s⁻¹ and the kcat/Km is 17000 ± 3000 M⁻¹ s⁻¹. Further, in the data set “purified protein”, the Michaelis constant (Km) turned out to be 430 ± 30 µM. For the same molecule, in [7], the Km was found to be 1700 ± 300 µM, the kcat was 0.42 ± 0.04 s⁻¹ and the specificity constant (kcat/Km) turned out to be 250 ± 70 M⁻¹ s⁻¹.

(Values after paper PMC11039470, “Catalytic specificity and crystal structure of cystathionine γ-lyase from Pseudomonas aeruginosa” (Scientific Reports, 2024).)
